# Test results from the supplement of paper PMC6755084.
# B1: F1*; the commonest letter at each place (parent)
# chain: GAGACCGCAACTGAAAAGTTGTTATCACTTGTCGTAAGACACTTTGGATGGGTTGAAGTTCTGCACGTAGAAGCAAAAGGC
# Variants of: B1
# Test: fraction ligated after 30 min (ligated reads / total reads); higher = more ligase activity
# Settings: with F1*sub RNA substrate (template-directed ligation), 42 °C
# Experimental: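 Chip-synthesised pool of F1* ligase ribozyme variants (all single and double substitutions, single, double and triple deletions in the catalytic core and GAA bulge, plus designed variants) was transcribed with T7 and reacted as a pool with excess substrate F1*sub for 30 min at 42 C in 50 mM EPPS pH 8.5, 25 mM MgCl2. Ligated and unligated bands were separated by PAGE, barcoded by RT and deep sequenced; fraction ligated = ligated reads / total reads per variant, relative activity = FL / FL of wild type (0.826). Sequences are the DNA template of the ribozyme.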
row,Variant,fraction ligated
1,A24G A48G,0.762
2,A24G A48C,0.729
3,A24C T29G,0.766
4,A24C T29C,0.28
5,A24C T29A,0.747
6,A24G A41C,0.034
7,A24G A41G,0.691
8,A24G A41T,0.701
9,A24G T35G,0.774
10,A24G T35A,0.786
11,A24G T35C,0.776
12,A24T T30A,0.67
13,A24T T30G,0.768
14,A24T T30C,0.297
15,A24G A39C,0.504
16,A24G A39G,0.827
17,A24G A39T,0.664
18,A24T G47A,0.797
19,A24T G47C,0.0331
20,A24T G47T,0.108
21,A24G A36G,0.813
22,A24G A36T,0.789
23,A24G A36C,0.833
24,T25A C40A,0.134

row,Variant,fraction ligated
1,T25A C40T,0.647
2,T25A C40G,0.256
3,T25A A56T,0.0445
4,T25A A56G,0.0269
5,T25A A56C,0.0125
6,T25A A41C,0.0344
7,T25A A41T,0.587
8,T25A A41G,0.419
9,T25A T44A,0.762
10,T25A T44C,0.605
11,T25A T44G,0.117
12,A24C T25C,0.793
13,A24C T25G,0.787
14,A24C T25A,0.793
15,T25A G46A,0.279
16,T25A G46C,0.137
17,T25A G46T,0.0811
18,A24G T29G,0.811
19,A24G T29A,0.807
20,A24G T29C,0.741
21,A24T G46A,0.553
22,A24T G46C,0.313
23,A24T G46T,0.2
24,A24C T35C,0.764

row,Variant,fraction ligated
1,A24C T35A,0.782
2,A24C T35G,0.759
3,A24T C33G,0.336
4,A24T C33T,0.742
5,A24T C33A,0.214
6,T25A G34A,0.724
7,T25A G34C,0.521
8,T25A G34T,0.718
9,T25C A37C,0.766
10,T25C A37G,0.812
11,T25C A37T,0.784
12,A24T T25C,0.779
13,A24T T25A,0.735
14,A24T T25G,0.722
15,A24C T43C,0.231
16,A24C T43G,0.792
17,A24C T43A,0.625
18,A24T G38T,0.745
19,A24T G38A,0.205
20,A24T G38C,0.685
21,T25A T45C,0.0183
22,T25A T45G,0.029
23,T25A T45A,0.0271
24,A24C T44C,0.563

row,Variant,fraction ligated
1,A24C T44A,0.759
2,A24C T44G,0.292
3,A24C G31A,0.0336
4,A24C G31T,0.0308
5,A24C G31C,0.038
6,T25C A27T,0.774
7,T25C A27G,0.796
8,T25C A27C,0.744
9,A24T G31A,0.0391
10,A24T G31C,0.0424
11,A24T G31T,0.0661
12,T25A C26G,0.0644
13,T25A C26T,0.129
14,T25A C26A,0.0968
15,T25A G38C,0.0835
16,T25A G38T,0.375
17,T25A G38A,0.353
18,T25A A39T,0.255
19,T25A A39G,0.751
20,T25A A39C,0.223
21,A24G C28G,0.701
22,A24G C28T,0.743
23,A24G C28A,0.719
24,A24G G47A,0.684

row,Variant,fraction ligated
1,A24G G47C,0.0125
2,A24G G47T,0.0352
3,A24G T30A,0.745
4,A24G T30G,0.79
5,A24G T30C,0.693
6,A24G A27G,0.701
7,A24G A27T,0.126
8,A24G A27C,0.776
9,A24T C40T,0.769
10,A24T C40A,0.34
11,A24T C40G,0.582
12,A24T G34C,0.557
13,A24T G34T,0.76
14,A24T G34A,0.789
15,A24T T45A,0.0698
16,A24T T45C,0.0212
17,A24T T45G,0.0472
18,T25A T32C,0.145
19,T25A T32A,0.094
20,T25A T32G,0.13
21,A24G C40A,0.731
22,A24G C40T,0.84
23,A24G C40G,0.802
24,A24G A37T,0.764

row,Variant,fraction ligated
1,A24G A37C,0.796
2,A24G A37G,0.852
3,A24C T30G,0.57
4,A24C T30C,0.168
5,A24C T30A,0.414
6,T25A C42T,0.785
7,T25A C42G,0.553
8,T25A C42A,0.653
9,A24C C40A,0.165
10,A24C C40G,0.348
11,A24C C40T,0.707
12,A24C C28A,0.727
13,A24C C28G,0.742
14,A24C C28T,0.786
15,A24G T44G,0.791
16,A24G T44C,0.763
17,A24G T44A,0.817
18,A24G G31T,0.331
19,A24G G31A,0.202
20,A24G G31C,0.181
21,A24T A27T,0.712
22,A24T A27G,0.748
23,A24T A27C,0.737
24,A24G T32A,0.591

row,Variant,fraction ligated
1,A24G T32G,0.589
2,A24G T32C,0.369
3,T25A A36T,0.752
4,T25A A36C,0.684
5,T25A A36G,0.766
6,A24T T44G,0.196
7,A24T T44C,0.778
8,A24T T44A,0.772
9,A24C C33G,0.4
10,A24C C33T,0.697
11,A24C C33A,0.147
12,A24T A56T,0.0614
13,A24T A56G,0.0306
14,A24T A56C,0.0299
15,A24T A41G,0.72
16,A24T A41T,0.785
17,A24T A41C,0.184
18,T25A C33T,0.472
19,T25A C33G,0.229
20,T25A C33A,0.189
21,A24C G38T,0.468
22,A24C G38C,0.274
23,A24C G38A,0.508
